What all share (assay): peptide ELISA, 0.5 µg/well scFv
The target of test [1] is CCR5 (residues 1-18) derived peptide, non-sulfated.
Test [2] deals with CCR5 (residues 1-18) derived peptide, sulfated at 1st tyrosine position.
For test [3], the target named is CCR5 (residues 1-18) derived peptide, sulfated at 2nd tyrosine position.
For test [4], the target named is CCR5 (residues 1-18) derived peptide, sulfated at 3rd tyrosine position.
Test [5] has as its target GPIb (residues 268-285) derived peptide, non-sulfated.
The target in test [6] is GPIb (residues 268-285) derived peptide, sulfated at 1st tyrosine position.
The target in test [7] is GPIb (residues 268-285) derived peptide, sulfated at 3rd tyrosine position.
Test [8] concerns the target PSGL-1 (residues 42-58) derived peptide, non-sulfated.
The target of test [9] is PSGL-1 (residues 42-58) derived peptide, sulfated at 1st tyrosine position.
Test [10] concerns the target PSGL-1 (residues 42-58) derived peptide, sulfated at 2nd tyrosine position.
For test [11], the target named is PSGL-1 (residues 42-58) derived peptide, sulfated at 3rd tyrosine position.

Take N06 scFv (negative control): the ELISA read-out at 450 nm in [1] was determined as 0.06 OD 450 nm; in test [2] it was 0.06 OD 450 nm; in test [3], 0.06 OD 450 nm; in test [4], 0.06 OD 450 nm; in test [5], 0.07 OD 450 nm; in test [6], 0.07 OD 450 nm. Also, the ELISA read-out at 450 nm in test [7] is 0.07 OD 450 nm; in test [8], 0.06 OD 450 nm; in test [9] it was 0.06 OD 450 nm; in [10], 0.06 OD 450 nm; in test [11] it was 0.06 OD 450 nm.

The record behind these values is US20080274100A1.
